# Measured values as given in article PMC10350561 (MicrobiologyOpen, 2023).
# Target: staphylococcal superantigen-like protein 1 (Staphylococcus aureus, strain of the …, UniProt A0A0H3KAV3)
# Test: ELISA
# Details: one partner purified
# Chain of staphylococcal superantigen-like protein 1 (A0A0H3KAV3 31-226): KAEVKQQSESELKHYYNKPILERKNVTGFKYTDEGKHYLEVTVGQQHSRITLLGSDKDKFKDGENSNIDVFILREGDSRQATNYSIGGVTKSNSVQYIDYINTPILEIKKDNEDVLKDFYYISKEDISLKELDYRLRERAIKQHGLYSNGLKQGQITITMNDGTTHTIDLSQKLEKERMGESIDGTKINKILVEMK
binder,measurement,value
"scFv-99 (scFv-ALP fusion) (scFv, V domains shown) VH: EVQLLESGGGLVQPGGSLRLSCAASGFTFSNYSMHWVRQAPGKGLEWVSVIDYNSGYTDYADSVKGRFTISRDNSKNTLYLQMNSLRAEDTAVYYCARGIFDYWGQGTLVTVSS VL: EIVLTQSPGTLSLSPGERATLSCRASQSVSSSALAWYQQKPGQAPRLLIYGASSRATGVPDRFSGSGSGTDFTLTISRLEPEDFAVYYCQQSSSTPWTFGQGTKVEIK",binding result,binds
